Data: US20050250700A1 (BRACCO SUISSE, published 2005)
Blank lines part the entries; values can stand above or below the binder they belong to. Bridge positions count the residues as written; N and C are the ends. Side chains are listed from the residue outwards. Ends that are not written are not given here. I, II: the chains in the order shown. * marks the point of attachment. Biotin = O=C1N[C@H]2[C@H](CS[C@H]2CCCCC(=O)*)N1; AEEA = NCCOCCOCC(=O)O

Experiments:
[1] = target: T1, chimeric fusion of Ig Fc region with human KDR (human, UniProt P35968 20-764); test: SPR; form of KDR not stated there
T1 construct: bought, carrier-free; also called KDR-Fc; KDR Fc fusion; not shown: Ig Fc region
T1 sequence (P35968 20-764, change not shown): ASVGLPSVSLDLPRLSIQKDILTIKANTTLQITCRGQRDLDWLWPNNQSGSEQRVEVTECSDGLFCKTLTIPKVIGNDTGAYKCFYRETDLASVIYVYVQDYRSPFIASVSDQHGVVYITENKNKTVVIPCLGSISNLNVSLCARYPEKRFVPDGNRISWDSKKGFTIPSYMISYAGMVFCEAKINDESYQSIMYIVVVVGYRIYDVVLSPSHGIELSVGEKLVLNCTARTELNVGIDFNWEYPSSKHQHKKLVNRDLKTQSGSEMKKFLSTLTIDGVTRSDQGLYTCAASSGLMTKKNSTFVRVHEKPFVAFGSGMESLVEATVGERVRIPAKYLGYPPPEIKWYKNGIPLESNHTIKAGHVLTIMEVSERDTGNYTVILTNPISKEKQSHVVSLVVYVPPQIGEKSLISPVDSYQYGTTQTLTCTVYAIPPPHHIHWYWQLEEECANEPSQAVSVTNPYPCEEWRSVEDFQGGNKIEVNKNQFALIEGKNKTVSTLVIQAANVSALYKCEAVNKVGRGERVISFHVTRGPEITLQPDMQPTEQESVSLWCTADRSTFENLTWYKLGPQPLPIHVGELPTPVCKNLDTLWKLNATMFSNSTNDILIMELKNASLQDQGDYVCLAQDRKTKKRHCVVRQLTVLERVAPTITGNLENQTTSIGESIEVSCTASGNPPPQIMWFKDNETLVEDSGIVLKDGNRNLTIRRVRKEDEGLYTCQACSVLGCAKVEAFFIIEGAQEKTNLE

[2] = target: T2, KDR (VEGFR-2), full-length receptor on cells (human, UniProt P35968 20-1356); test: 3.33 nM peptide mix/neutravidin-HRP complex on 293H cells
T2 construct: whole, on cells; the assay field tells which cells; also called KDR-expressing cells
T2 sequence (P35968 20-1356): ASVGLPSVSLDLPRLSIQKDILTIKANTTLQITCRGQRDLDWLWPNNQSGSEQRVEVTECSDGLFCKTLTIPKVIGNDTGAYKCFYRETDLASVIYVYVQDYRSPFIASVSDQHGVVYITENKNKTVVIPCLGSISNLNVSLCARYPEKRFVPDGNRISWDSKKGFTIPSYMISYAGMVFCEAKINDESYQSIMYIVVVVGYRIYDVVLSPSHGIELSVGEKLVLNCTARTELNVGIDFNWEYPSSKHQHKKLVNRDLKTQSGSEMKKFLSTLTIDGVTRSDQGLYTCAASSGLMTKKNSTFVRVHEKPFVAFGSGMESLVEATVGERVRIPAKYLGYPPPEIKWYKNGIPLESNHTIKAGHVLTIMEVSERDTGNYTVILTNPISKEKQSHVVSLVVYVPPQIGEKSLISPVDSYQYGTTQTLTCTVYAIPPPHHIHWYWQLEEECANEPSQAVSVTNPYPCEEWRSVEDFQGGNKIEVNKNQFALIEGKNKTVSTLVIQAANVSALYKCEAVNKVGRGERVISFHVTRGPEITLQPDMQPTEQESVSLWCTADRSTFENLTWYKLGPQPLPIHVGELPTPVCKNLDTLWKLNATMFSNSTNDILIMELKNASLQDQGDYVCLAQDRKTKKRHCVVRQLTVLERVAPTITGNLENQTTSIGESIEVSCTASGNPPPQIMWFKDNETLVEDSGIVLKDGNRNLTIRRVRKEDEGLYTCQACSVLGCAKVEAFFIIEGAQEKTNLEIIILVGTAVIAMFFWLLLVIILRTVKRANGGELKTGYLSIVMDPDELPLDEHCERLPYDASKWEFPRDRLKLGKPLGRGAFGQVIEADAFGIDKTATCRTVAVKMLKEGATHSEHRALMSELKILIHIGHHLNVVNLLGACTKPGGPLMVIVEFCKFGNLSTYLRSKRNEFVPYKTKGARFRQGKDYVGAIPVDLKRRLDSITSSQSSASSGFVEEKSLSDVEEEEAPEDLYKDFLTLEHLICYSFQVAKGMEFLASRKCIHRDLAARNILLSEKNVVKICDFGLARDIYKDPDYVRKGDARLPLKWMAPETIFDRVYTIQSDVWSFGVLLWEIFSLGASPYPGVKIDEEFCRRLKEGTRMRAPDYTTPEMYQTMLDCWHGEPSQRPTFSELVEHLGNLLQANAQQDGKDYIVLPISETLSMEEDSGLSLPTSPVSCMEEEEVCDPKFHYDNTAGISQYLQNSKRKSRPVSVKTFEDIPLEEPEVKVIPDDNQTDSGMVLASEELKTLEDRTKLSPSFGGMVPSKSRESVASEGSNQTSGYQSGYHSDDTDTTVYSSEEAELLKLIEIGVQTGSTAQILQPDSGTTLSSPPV
Protocol: Peptide stock solutions were stored at −20C, whereas the Neutravidin HRP stock solution was stored at −80C. […] Fresh peptide/neutravidin HRP complexes were prepared for each experiment.
(§1) After incubation at room temperature, plates were transferred to 4C for another half-hour incubation. Subsequently, cells were washed five times with ice-cold M199 media and once with ice-cold PBS (in that order). After the final wash, 100 μL of ice cold TMB solution (KPL, Gaithersburg, Md.) was added to each well and each plate was incubated for 30 minutes at 37C in an air incubator.

[3] = target: T1, chimeric fusion of Ig Fc region with …; test: BIAcore steady state, KDAV, KDR-Fc 6000 RU
Protocol: (§2) The heterodimer was tested for binding to KDR-Fc using Biacore, and an affinity constant was determined as follows.
(§3) All samples were injected in duplicate. […] Following a 10 minute dissociation, any remaining peptide was stripped from the KDR surface with a quickinject of 50 mM NaOH+1 M NaCl for 12 s at 75 μL/min. Sensorgrams were analyzed using BIAevaluation software 3.1 and a hyperbolic double rectangular regression equation in SigmaPlot 6.0.

[4] = target: T1, chimeric fusion of Ig Fc region with …; test: BIAcore steady state, KDAV, KDR-Fc 1600 RU
Protocol: as §2, §3

[5] = target: T2, KDR (VEGFR-2), full-length receptor on …; test: cell-based or functional assay
[6] = target: T1, chimeric fusion of Ig Fc region with …; test: BIAcore steady state, KD1, KDR-Fc 6000 RU
Protocol: as §2, §3

[7] = target: T1, chimeric fusion of Ig Fc region with …; test: BIAcore steady state, KDAV, KDR-Fc 3000 RU
Protocol: as §2, §3

[8] = target: T1, chimeric fusion of Ig Fc region with …; test: BIAcore steady state, KD1, KDR-Fc 1600 RU
[9] = target: T1, chimeric fusion of Ig Fc region with …; test: BIAcore steady state at the higher immobilization densities
Protocol: as §3

[10] = target: T1, chimeric fusion of Ig Fc region with …; test: BIAcore steady state, KD1, KDR-Fc 3000 RU
Protocol: as §2, §3

[11] = target: T2, KDR (VEGFR-2), full-length receptor on …; test: competitor 125I-VEGF (300 pM) on KDR-transfected 293H cells; peptide 0.3 µM
Protocol: (§4) Preparation of 30 μM and 0.3 μM peptide solution in 300 pM ¹²⁵I-labeled VEGF: For each 96 well plate, 10 mL of 300 pM ¹²⁵I-labeled VEGF in M199 medium was prepared at 4° C. Each peptide solution (3 mM, prepared as described above) was diluted 1:100 and 1:10000 in 300 μl of M199 media with 300 pM ¹²⁵I-labeled VEGF to prepare 30 μM and 0.3 μM peptide solutions containing 300 pM of ¹²⁵I-labeled VEGF. Once prepared, the solutions were kept on ice until ready to use. The dilution of peptides in M199 media containing 300 pM ¹²⁵I-labeled VEGF was done freshly for each experiment.
(§5) To calculate the specific binding to KDR, the binding of ¹²⁵I-labeled VEGF to mock-transfected cells was subtracted from KDR-transfected cells.

[12] = target: T2, KDR (VEGFR-2), full-length receptor on …; test: competitor 125I-VEGF (300 pM) on KDR-transfected 293H cells; peptide 30 µM
Protocol: as §4, §5

[13] = target: T2, KDR (VEGFR-2), full-length receptor on …; test: saturation binding of peptide/neutravidin-HRP complex, KDR- minus mock-transfected 293H cells
Protocol: as §1, with “4° C.” for “4C”, “5” for “five”, “μl” for “μL”, “cat. # 50-76-00)” for “Gaithersburg, Md.)”, “37° C.” for “37C”
Therefore, absorbance on the Y-axis of FIG. 1 is differential absorbance (KDR minus mock) and not the absolute absorbance.

B2: tetrameric neutravidin-HRP complex of SEQ ID NO:294 and SEQ ID NO:264, ratio 2:2 (other)
peptide 1: Ac-GDSRVCWEDSWGGEVCFRYDPGGGK([AEEA-AEEA-Biotin])-NH2
peptide 2: Ac-AGPKWCEEDWYYCMITGTGGGK([AEEA-AEEA-Biotin])-NH2
modifications: disulfide I:6-I:16, II:6-II:13 (inferred); also: tetrameric neutravidin-HRP complex, chain ratio 2:2
notes: nominal composition
binding result [2]: binds

B3: dimer 6 (D6) (peptide)
peptide 1: GDSRVCWEDSWGGEVCFRYDPGGGK
peptide 2: AGPTWCEDDWYYCWLFGTGGGK
modifications: disulfide I:6-I:16, II:6-II:13 (inferred); also: heterodimer joined by glutaric acid linkage
Kd [3]: 0.662 nM
Kd [4]: 1.5 nM
IC50, VEGF-induced migration of HUVECs [5]: ~12.5 nM
IC50, VEGF-induced migration of HUVECs, with 100 nM Adjunct A [5]: ~2.5 nM
Kd [6]: 17 nM
Kd [7]: 0.665 nM
Kd [8]: 46 nM
Kd [9]: ~0.6 nM
Kd [10]: 25.5 nM

B4: tetrameric neutravidin-HRP complex of SEQ ID NO:294 and SEQ ID NO:264, ratio 1:3 (other)
peptide 1: Ac-GDSRVCWEDSWGGEVCFRYDPGGGK([AEEA-AEEA-Biotin])-NH2
peptide 2: Ac-AGPKWCEEDWYYCMITGTGGGK([AEEA-AEEA-Biotin])-NH2
modifications: disulfide I:6-I:16, II:6-II:13 (inferred); also: tetrameric neutravidin-HRP complex, chain ratio 1:3
notes: nominal composition
binding result [2]: binds

B5: tetrameric neutravidin-HRP complex of SEQ ID NO:294 and SEQ ID NO:264, ratio 3:1 (other)
peptide 1: Ac-GDSRVCWEDSWGGEVCFRYDPGGGK([AEEA-AEEA-Biotin])-NH2
peptide 2: Ac-AGPKWCEEDWYYCMITGTGGGK([AEEA-AEEA-Biotin])-NH2
modifications: disulfide I:6-I:16, II:6-II:13 (inferred); also: tetrameric neutravidin-HRP complex, chain ratio 3:1
notes: nominal composition
binding result [2]: binds

Binder: VCWEDSWGGEVCFRYDPGGGK (disulfide 2-12 (inferred)) [SEQ ID NO:337, monomeric free peptide]
IC50, receptor activation assay [5]: 1000 nM

Binder: Ac-GDSRVCWEDSWGGEVCFRYDP (disulfide 6-16 (inferred)) [acetylated SEQ ID NO:294 without the modified C-terminus (SEQ ID NO:374)]
% inhibition of 125I-labeled VEGF binding [11]: 52.3%
% inhibition of 125I-labeled VEGF binding [12]: 96.3%

More lines, now with the values ahead:

Kd [1]: 11 nM
B1: dimer 28 (D28) (peptide)
peptide 1: AQEPEGYAYWEVITLYHEEDGDGGK
peptide 2: AQAFPRFGGDDYWIQQYLRYTDGGK
modifications: also: tail-to-tail heterodimer, linkage not given here

Kd [13]: 10 nM
B6: tetrameric complex of biotinylated SEQ ID NO:294 (JJ spacer) with neutravidin-HRP (other)
peptide: Ac-GDSRVCWEDSWGGEVCFRYDPGGGK([AEEA-AEEA-Biotin])-NH2
modifications: disulfide 6-16 (inferred); also: tetrameric complex with neutravidin-HRP
notes: peptides held on neutravidin-HRP (Pierce 31001)
